Results taken from patent US8114412B2, “T. cruzi-derived neurotrophic agents and methods of use therefor” (priority 1999, dated 2012).
“Also recorded” adds a separate entry of the source.

Tests used:
N18 cells = assay: Neurite outgrowth assay in N18 cells; assay type: cell-based; details: immobilized proteins coated at 500 μg/ml, 17 hours (FIG. 3A)
Description: FIG. 3A is a graph showing that neurite outgrowth in N18 cells is induced by immobilized laminin (Ln), immobilized TS and immobilized fragments of TS. Proteins were immobilized by incubating plates which contained wells filled with solutions of the proteins (protein concentration was 500 μg/ml) at 4° C. overnight. The protein solutions were removed and the plates were further incubated with 1% BSA at room temperature for one hour. N18 cells were cultured in the coated wells in serum-free RPMI-1640/0.2% BSA for 17 hours, and neurite outgrowth was measured by phase-contrast microscopy. […] Ln, laminin; TS, purified T. cruzi trans-sialidase; 7F, recombinant TS from clone 7F; 19Y, recombinant TS from clone 19Y; TS-F, recombinant fragment consisting of amino acid residues 33-666 of TS (SEQ ID NO:2); TS-CC-47, recombinant fragment consisting of amino acid residues 79-478 of TS (SEQ ID NO:2); TS-Cat-47, recombinant fragment consisting of amino acid residues 79-415 of TS (SEQ ID NO:2); BSA, bovine serum albumin.
96-well microtiter plates were coated overnight at 4° C. with the TS or peptides or fragments thereof, or with control proteins laminin (Ln) or bovine serum albumin (BSA) at 500 μg/ml. After removing the compounds, the plates were further incubated with 1% BSA for 1 hour at room temperature and immediately used as substratum for PC12 or N18 (Prasad, K. N., Biol Rev Camb Philos Soc, 66:431-451 (1991)) cells in serum-free RPMI/0.2% BSA. Neurite outgrowth was measured using a phase-contrast microscope 17 hours later.

PC12 cells = assay: Trophic factor withdrawal-induced apoptosis of PC12 cells (DAPI/TUNEL); assay type: cell-based, rat
Excerpt: PC12 cells were obtained from ATCC (Manassas, Va. (Accession No. CRL-1721)) and cultured on collagen-coated dishes in RPMI 1640 supplemented with 10% horse serum and 5% fetal bovine serum (Greene, L. A. and Tishler, A. S., Proc. Natl. Acad. Sci. USA, 73: 2424-2428 (1976)). For differentiation and survival experiments, cells were washed three times in serum-free RPMI/0.2% BSA, plated in the same medium in collagen-coated plastic dishes at 2×10^5/ml, without and with growth factors, TS, recombinant proteins, synthetic peptides, for the time and concentrations indicated in the Figures.
Cell staining with 4,6-diamino-2-phenylindole (DAPI). Cells were fixed with 4% formaldehyde in PBS for 5 minutes, washed with PBS, stained with 10 μg/ml DAPI (Sigma) for 2 minutes, washed with PBS, and visualized under UV light using a fluorescent microscope. About 300-400 cells were examined under the microscope to determine the percentage of apoptotic cells.
Cell DNA nick end labeling (TUNEL) (Gavrieli, Y., et al., J. Cell. Biol. 119: 493-501 (1992)) assay was performed using a kit purchased from Boehringer Mannheim as described by the manufacturer.
Protection against apoptosis of PC12 cells in serum-free medium containing a test agent (agent N)(e.g., protection induced by TS, TS fragments, NGF or other growth factors), was calculated by the formula: 100%-[(apoptosis(%) of cells kept in RPMI containing test agent N÷apoptosis (%) of cells kept in RPMI)×100%]. Testing the effect of wortmannin (Sigma) and LY294002 (Sigma) in inhibiting the neuroprotection of TS was performed following the protocol described by others (Yao and Cooper, Science, 267:2003-2006 (1995); D'Mello et al., J. Neurosci 17:1548-1560 (1997)). In brief, PC12 cells were switched from growth medium to RPMI without and with TS or various other growth factors. After 24 hr, wortmannin and LY294002 were added to the cultures. After another 24 hrs, cells were examined for apoptosis by the DAPI assay, as above.

human Schwann cells = assay: Serum withdrawal-induced apoptosis of immortalized human Schwann cells (DAPI); assay type: cell-based
Akt kinase in PC12 cells = assay: Immunodetection of activated Akt (Ser 473) in PC12 cells; assay type: cell-based, rat
Description: PC12 cells were deprived of serum for 24-48 hours, stimulated with TS, TS-F or LTR for 2, 5 or 10 minutes and immediately lysed with 2% SDS. In studies using the PI-3 kinase inhibitor, LY294002 (LY), cells were pre-treated with the inhibitor (1 μM) for 30 min prior to the addition of TS-F or TS. The proteins in the cell lysate were separated in SDS-10% polyacrylamide gels, transferred to nitrocellulose membrane (Bio-Rad) and the phosphorylated form of protein kinase Akt was detected with phospho-Akt (Ser 473) antibody (New England BioLabs, Beverly, Mass.), followed by alkaline phosphatase-conjugated secondary antibody (Promega, Madison, Wis.). Bands corresponding to phospho-Akt (60 kDa) were quantified using a scanning densitometer (Bio-Rad).

[1] = system: human bladder carcinoma T-24 cell line; assay: IL-6 secretion by T-24 carcinoma cells (ELISA); assay type: cell-based
Description: Primary cultures of human intestinal microvascular endothelial cells (HIMEC) isolated from normal jejunal mucosa/submucosal tissue were prepared as described (Strong et al., Gastroenterology 114: 1244-1256 (1998)). The HIMEC were cultured in fibronectin-coated plasticware in MCDB medium (Sigma) supplemented with 20% FBS, 90 μg/ml heparin and 50 μg/ml endothelial cell growth factor (Sigma). T-24 cells (ATCC Accession No. HTB-4) were cultured in M199 medium supplemented with 10% FBS. PBMC were purified by Ficoll-Paque gradient as described (Current Protocols in Immunology, pp 7.1.1-7.1.2). Vero cells (ATCC Accession No. CCL-81) were grown in RPMI medium with 5% Nu serum and infected with the Silvio X-10/4 of T. cruzi as described previously (Chuenkova et al., J. Exp. Med. 181: 1693-1703, (1995)).
Endothelial cells and T-24 cells were plated on 24-well plates at a density of 1×10^3 cells/well, while peripheral blood mononuclear cells (PBMC) were plated in the similar wells at 1×10^6/well. Triplicat cultures of cells were incubated test agents for a predetermined amount of time. […] Cytokines and chemokines released in the culture supernatants were measured by ELISA assay following the instructions of the manufacturer (Endogen). The cytokines tested were IL-1β, IL-4, IL-8, IL-10, IL-12, IFN-γ, TNF-α, and the chemokines RANTES and MCP-1. Negative controls were cells incubated in medium containing polymixin B at 10 μg/ml, and positive controls were cells incubated with bacterial LPS at the low ng/ml range (for PBMC or HIMEC) or in the μg/ml range for carcinoma T-24 cells. In some experiments, IL-1β, or TNFα were used as positive control for cytokine release.

B1: TS: T. cruzi trans-sialidase purified by immuno-affinity chromatography from supernatants of infected Vero cells (SEQ ID NO:2, SEQ ID NO:34) (protein, listed as Trypanosoma cruzi)
chain: MVAIADARYETSSENSLIDTVAKYSVDDGETWETQIAIKNSRVSSVSRVVDPTVIVKGNKLYVLVGSYYSSRSYWSSHGDARDWDILLAVGEVTKSTAGGKITASIKWGSPVSLKKFFPAEMEGMHTNQFLGGAGVAIVASNGNLVYPVQVTNKRKQVFSKIFYSEDDGKTWKFGKGRSDFGCSEPVALEWEGKLIINTRVDWKRRLVYESSDMEKPWVEAVGTVSRVWGPSPKSNQPGSQTSFTAVTIEGMRVMLFTHPLNFKGRCVRDRLNLWLTDNQRIYNVGQVSIGDENSAYSSVLYKDDKLYCLHEINTDEVYSLVFARLVGELRIIKSVLRSWKNWTATCPAFAPLLIQPLRRQRVVVVPLSPRLVLLAFCRQRLPKRMGGSYRCVNASTANAERVRNGLKFAGVGGGALWPVSQQGQNQRYRFANHAFTLVASVTIHEAPRAASPLLGASLDSSGGKKLLGLSYDEKHQWQPIYGSTPVTPTGSWETGKRYHLVLTMANKIGSVYIDGELLEGSGQTVVPDGRTPDISHFYVGGYKRSDMPTISHVTVNNVLLYNRRQLNTEEIRTLFLSQDLIGTEAHMDSSSDSSAHSTPSTPADSSAHSTPSTPVDSSAHSTPSTPADSSAHGTPSTPVDSSAHGTPSTPADSSAHGTPSTPVDSSAHSTPSTPVDSSAHSTPSTPVDSSAHGAPSTPADSSAHGTPSTPVDSSAHGTPSTPADSSAHSTPSTPADSSAHSTPSTPADSSAHSTPSTPVDSSAHGTPSTPADSSAHSTPSTPADSSAHGTPSTPVDSSAHSTPSTPVDSSAHGTPSTPVDSSAHSTPSTPVDSSAHGTPSTPVDSSAHSTPSTPADSSAHSTPSTPADSSAHGTPSTPVDSSAHSTPSTPADSSAHSTPSTPVDSSAHSTPSTPADSSAHGTPSTPVDSSAHGTPSTPADSSAHSTPSTPADSSAHSTPSTPADSSAHSTPSTPVDSSAHSTPSTPADSSAHSTPSTPADSSAHSTPSTPADSSAHSTPSTPVDSSAHSTPSTPADSSAHGTPSTPADSSAHSTPSTPVDSSAHSTPSTPADSSAHGTPSTPADSSAHSTPSTPADSSAHGTPSTPADSSAHSTPSTPAGSSANGTVLILPDGAALSTFSGGGLLLCACALLLHVFFMAVF
- neurite outgrowth in N18 cells (N18 cells): induced neurite outgrowth
- PC12 cells protected from death (PC12 cells; TS 62 pM (equivalent to 12.5 ng/ml)): 45%
- survival of PC12 cells grown in serum-free medium (PC12 cells; TS 2.5 ng/ml alone or with CNTF 50 ng/ml or LIF 0.5 ng/ml): 13%
- PC12 cells protected from apoptotic death (PC12 cells; TS 2.5 ng/ml, NGF 0.5 ng/ml, alone or co-administered at the same concentrations): 15%
- potency relative to NGF in preventing apoptosis (PC12 cells; molar basis): more potent on a molar basis; also recorded: at concentrations lower than those required by nerve growth factor; also recorded: more effective on a molar base
- protection of PC12 cells from apoptosis induced by trophic factor withdrawal (PC12 cells; serum-free RPMI-1640/0.2% BSA, 17 hours, DAPI or TUNEL): effectively protected; also recorded: inhibits trophic factor withdrawal-induced apoptosis; also recorded: protects PC12 cells from apoptosis induced by trophic factor withdrawal in a dose dependent manner; also recorded: protected PC12 cells from apoptosis
- duration of protection of PC12 cells by a single dose (PC12 cells; time course, TS 0.5 nM (FIG. 5B)): up to several days; also recorded: delayed trophic factor withdrawal-induced apoptotic death
- dose showing efficacy as trophic factor for Schwann cells (human Schwann cells): ≥ 0.5 nM
- inhibition of serum withdrawal-induced apoptosis of human Schwann cells (human Schwann cells; serum-free DMEM, 24-72 hours, DAPI): effectively inhibited; also recorded: dose-dependent inhibition
- phosphorylation/activation of Akt kinase in PC12 cells (Akt kinase in PC12 cells; 100 ng/ml, 2, 5 or 10 minutes, phospho-Akt (Ser 473) antibody): becomes activated; also recorded: induces serine phosphorylation of Akt kinase
- exposure time after which Akt becomes activated (Akt kinase in PC12 cells; TS 100 ng/ml): 2 to 5 min
- IL-6 secretion by T-24 cells ([1]; 24 hours culture): stimulated IL-6 secretion
- bacterial LPS concentration inducing the same IL-6 in T-24 cells ([1]; TS 1 μg/ml, 24 hr): 0.75 µg/mL
